Laboratory results from US5670316, “Diagnostic applications of double D-loop formation” (Daikin Industries, Ltd.).

Target: RecA (UniProt P0A7G6 P0A7G6:2-353)
Experiment: EMSA; 2.4 mM ATPgammaS, 37 C 10 min; retardation increases over 0.137-13.7 uM RecA
Conditions: tags: wild-type, untagged; purified from overproducing strain JC12772 or purchased from Pharmacia; label: 32P 5'-end; both complementary strands, heat denatured
Procedure: RecA protein coating of probes was normally carried out in a standard 1× RecA coating reaction buffer (10× RecA reaction buffer: 100 mM Tris acetate (pH 7.5 at 37° C.), 20 mM magnesium acetate, 500 mM sodium acetate, 10 mM DTT and 50% glycerol (Cheng et al. 1988). All of the probes, whether double-stranded or single-stranded, were denatured before use by heating to 95°–100° C. for five minutes, placed on ice for one minute, and subjected in a Tomy centrifuge to centrifugation (10,000 rpm) at 0° C. for approximately 20 seconds. Denatured probes were added immediately to room temperature RecA coating reaction buffer mixed with ATPγS and diluent (double-distilled H_2O), as necessary.
Heat denatured ^32P-labeled double-stranded 121-mer and 159-mer DNA probes were reacted with RecA protein as described above. The final RecA-DNA reaction mixtures contained 2.4 mM ATPγS. RecA protein or RecA storage buffer was added to each of four reactions containing 0.01 μg of either denatured 121- or 159-mer DNA probe. The final concentration of RecA in each reaction was 0, 0.137, 1.37 or 13.7 μM in lanes 1 and 5, 2 and 6, 3 and 7 or 4 and 8, respectively (FIG. 3). All RecA/DNA probe coating reactions were performed in a final volume of 10 μl. RecA binding was initiated by incubating all the reactions at 37° C. for 10 min. […]

Sequence of RecA (P0A7G6 2-353, one chain of several): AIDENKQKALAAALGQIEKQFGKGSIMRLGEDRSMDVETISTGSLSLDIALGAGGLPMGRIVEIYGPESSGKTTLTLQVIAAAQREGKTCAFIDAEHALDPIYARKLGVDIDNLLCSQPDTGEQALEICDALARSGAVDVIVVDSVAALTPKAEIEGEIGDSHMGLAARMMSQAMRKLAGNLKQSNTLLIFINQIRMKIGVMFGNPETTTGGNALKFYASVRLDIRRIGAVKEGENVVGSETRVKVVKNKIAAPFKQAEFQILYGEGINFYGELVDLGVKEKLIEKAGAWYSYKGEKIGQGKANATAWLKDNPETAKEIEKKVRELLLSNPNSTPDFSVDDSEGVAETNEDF

B1: lambda 159-mer probe (7472-7630), heat denatured (ssDNA)
DNA: CTGCATACTGATGCACTTCACGCCACGCGGGATGAACCTGTGGCATTTGTGCTGCCGGGAACGGCGTTTCGTGTCTCTGCCGGTGTGGCAGCCGAAATGACAGAGCGCGGCCTGGCCAGAATGCAATAACGGGAGGCGCTGTGGCTGATTTCGATAACC
- binding result: binds
